Source: publication PMC6118392, “VapC proteins from Mycobacterium tuberculosis share ribonuclease sequence specificity but differ in regulation and toxicity” (PLoS ONE, 2018)

T1: VapB1;VapC1 (UniProt P0CW29+P9WFC1)
T1 sequence 1: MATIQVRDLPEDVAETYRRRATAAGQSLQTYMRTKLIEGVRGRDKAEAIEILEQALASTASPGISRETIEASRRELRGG
T1 sequence 2: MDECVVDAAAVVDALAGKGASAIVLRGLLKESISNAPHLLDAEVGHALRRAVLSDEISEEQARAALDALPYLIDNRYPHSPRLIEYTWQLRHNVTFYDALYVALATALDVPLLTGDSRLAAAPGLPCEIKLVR

T2: VapB29;VapC29 (UniProt P9WJ37+P9WF79)
T2 sequence 1: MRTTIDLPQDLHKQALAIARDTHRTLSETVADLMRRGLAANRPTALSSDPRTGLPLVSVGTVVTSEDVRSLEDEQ
T2 sequence 2: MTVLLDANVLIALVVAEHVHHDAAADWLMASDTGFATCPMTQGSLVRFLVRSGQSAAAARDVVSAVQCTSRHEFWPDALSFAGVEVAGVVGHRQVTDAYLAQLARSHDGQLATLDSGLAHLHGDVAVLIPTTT

T3: VapB29;VapC29 (Mycobacterium tuberculosis …, UniProt P9WJ37;P9WF79 1-75;1-133, |)
T3 sequence 1: T2 sequence 1
T3 sequence 2: T2 sequence 2

B1: Oligo 5 (50 bp vapBC29 promoter, control) (dsDNA)
DNA 1: GGTGAGCGTCGGCGCGCGCATCACGATGCAGCGATGTTAGGATGAGGCGG
DNA 2: CCGCCTCATCCTAACATCGCTGCATCGTGATGCGCGCGCCGACGCTCACC

Experiments:
Assay in all cases: EMSA
VapB1;VapC1 = target: T1, VapB1;VapC1
VapB29;VapC29 [1] = target: T2, VapB29;VapC29
VapB29;VapC29 [2] = target: T3, VapB29;VapC29; settings: protein: recombinant;recombinant; tags: ;C-terminal His; label: 3' DIG-ddUTP; blunt

Molecule | binding (VapB1;VapC1) | binding (VapB29;VapC29 [1]) | binding result (VapB29;VapC29 [2])
GTGGATAAGCCGGCATTCTTAGCCGGTGAACTCCGCTATGGCTACCATTCAAGTTCGGGATTTGCCCGAAGATGTCGCCGAAACCTATCGACGGCGCGCCACCGCAGCGGGGCAGTCGCTGCAGACGTATATGCGCACCAAGCTCATCGA (double strand) [vapBC1 promoter 150 bp] | no binding | no binding | –
CATGGGAATACGATACCAATGGCTTCCCACTCAGGTGCGGAAGTCGACTCACCGCCGTTACCACGACCCCGACGACCACACCGTCAGCTGCGGCGCGGCGTGGCGACTATTGGTCGCTAGTGTCGTGCTCCCGATTCGGGTCCTTTGTATCTGATGACGT (double strand) [vapBC27 promoter 160 bp] | – | no binding | –
AGCGGAGTTCACCGGCTAAGAATGCCGGCTTATCCACCGGGCGTTTCGGCGGCATCGATGGCCTTCTCTAACCGGTCGAGCACCGCGCGCAGATCGGCCAG (double strand) [vapBC1 promoter 101 bp] | no binding | – | –
B1 | – | – | binds
